Residue numbers refer to the chain shown, from its start.
B1: VHH clone 1G6 (VHH)
VHH: QVQLQQSGGGLVQAGGSLRLSCAASGSIFAINEINLMGWYRQAPGKQRELVAACASDGNTYYADSVKGRFTISRDNAEKTVYLQMNNLKPDDTAVYYCDANSRGNYYSGQGTQVTVSS
B2: VHH clone 2H3 (VHH)
VHH: QVQLQESGGGLVQAGGSLRLSCVASGSIRSINVMGWYRQAPGKQRELVAACASDGNTYYADSVKGRFTISRDNAEKTVYLQMNNLKPDDTAVYYCDANSRGNYYSGQGTQVTVSS
B3: VHH clone 1H1 (VHH)
VHH: QVQLQESGGGLVQPGGSLRLSCAASGFTFNSYAMTWVRQAPGKGLEWVSDINSGGGSTNYADSVKGRFTISRDNAKNTLYLQMNSLKPEDTAVYYCATELRGSDYYRGPIREYAYWGQGTLVTVSS
B4: VHH clone 2F5 (VHH)
VHH: B1 VHH with V12A, A14T, R19I
B5: VHH clone 2F3 (VHH)
VHH: QVQLQAFGGGLVQPGGSLRLSCVVSGTMFSGKDVNWLRQAPGKHVEVVATVSSDGGTDYADFVKGRFTISRDDAKNTVNLQMNSLEPEDTANYMCHFLWGRHYWGQGTQVTVSS
B6: VHH clone 1B5 (VHH)
VHH: QVQLQESGGGLVQAGGSLRLSCVVSGATSNVNAMGWYRQAPGKERELVAAISSGGSTSYRDSVKGRFTISRDNAKNTLYLQMNSLKPEDTAMYYCAAQDWATEGYEYDYWGQGTLVTVSS

Target: CLEC12A/CLL1 (Homo sapiens) (UniProt Q5QGZ9)
Test: ELISA on plate coated with 1 ug/mL human CLEC12A; sdAb detected with mouse anti-myc mAb and goat anti-mouse IgG-HRP; Abs 450nm

Binder | EC50 [nM]
B1 | 0.48
B2 | 0.61
B3 | 0.9
B4 | 0.65
B5 | 1.5
B6 | 19.5
